{"source": "patent US6514747B2", "about": "(UT-Battelle, LLC, priority 1993, dated 2003)", "molecules": {"B1": {"name": "agouti: recombinant mouse agouti protein (131 amino acids, SEQ ID NO:2) produced with the baculovirus expression system in T. ni cells (protein, listed as Mus musculus)", "chain": "MDVTRLLLATLVSFLCFFTVHSHLALEETLGDDRSLRSNSSMNSLDFSSVSIVALNKKSKKISRKEAEKRKRSSKKKASMKKVARPPPPSPCVATRDSCKPPAPACCDPCASCQCRFFGSACTCRVLNPNC"}}, "key": {"untransfected 293 cells": {"system": "untransfected 293 cells", "assay": "adenylyl cyclase assay in untransfected 293 cells", "assay_type": "cell-based, human", "details": "agouti 0.7 nM", "experimental": "293 cells (5×10^5) and 293 cells expressing human TSH-R were preloaded with 5 μCi ^3H-adenine for 1.5 h at 37° C. in a 5% CO2 incubator.\nMedium was aspirated and 2.5% perchloric acid containing 0.1 mM cAMP was used to stop the incubation. Adenylyl cyclase activity was calculated by determining the percent conversion of ^3H-adenine to ^3H-cAMP as described (Salomon, 1991; Johnson and Salomon, 1991). Correlation of cAMP accumulation measured in this assay with actual adenylyl cyclase activity is made under the assumption that isobutymethylxanthine effectively blocks cAMP degradation. Data represent means and standard deviations from triplicate data points."}, "human MSH-R": {"target": "T1, human MSH-R (Homo sapiens, UniProt Q01726)", "T1 construct": "expressed in transfected cells; host or cells: human embryonic kidney 293 cells (printed '292')", "T1 sequence (Q01726 whole entry)": "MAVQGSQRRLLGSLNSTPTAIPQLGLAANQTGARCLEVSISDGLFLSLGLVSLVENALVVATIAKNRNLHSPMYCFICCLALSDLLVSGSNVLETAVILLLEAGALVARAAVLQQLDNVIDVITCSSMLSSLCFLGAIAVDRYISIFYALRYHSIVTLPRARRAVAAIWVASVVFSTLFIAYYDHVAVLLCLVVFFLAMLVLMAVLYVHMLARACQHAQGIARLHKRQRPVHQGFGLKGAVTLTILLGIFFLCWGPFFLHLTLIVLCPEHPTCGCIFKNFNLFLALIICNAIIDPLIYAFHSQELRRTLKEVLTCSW", "assay": "activation of human MSH-R in 293 cells (adenylyl cyclase)", "assay_type": "cell-based", "details": "0.7 nM agouti"}, "human MC4-R": {"target": "T2, human MC4-R (Homo sapiens, UniProt P32245)", "T2 construct": "expressed in transfected cells; host or cells: 293 cells", "T2 sequence (P32245 whole entry)": "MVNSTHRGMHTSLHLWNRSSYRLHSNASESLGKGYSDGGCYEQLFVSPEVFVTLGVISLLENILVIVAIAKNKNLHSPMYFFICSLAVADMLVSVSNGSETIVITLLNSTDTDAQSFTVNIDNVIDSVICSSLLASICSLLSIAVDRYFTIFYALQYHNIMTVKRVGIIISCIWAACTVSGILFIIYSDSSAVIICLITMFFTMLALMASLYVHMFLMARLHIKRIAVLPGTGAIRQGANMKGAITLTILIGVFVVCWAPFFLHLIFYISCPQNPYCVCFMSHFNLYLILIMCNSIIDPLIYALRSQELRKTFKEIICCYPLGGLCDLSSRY", "assay": "α-MSH activation of human MC4-R in transfected 293 cells (adenylyl cyclase)", "assay_type": "cell-based"}, "[1]": {"target": "T3, human melanocortin 1 receptor (hMC1R) (Homo sapiens, UniProt Q01726)", "T3 construct": "The coding region of the human melanocortin 1, 3, and 5 receptor (hMC1R, hMC3R, and hMC5R) genes was amplified; expressed in transfected cells; host or cells: HEK-293 cells, cotransfected with pMT4 construct and pRSV-Neo, geneticin-selected clones", "T3 sequence (Q01726 whole entry)": "as the sequence (Q01726 whole entry) above", "assay": "[Ca2+]i in HEK-293 cells transfected with hMC1R", "assay_type": "cell-based", "details": "FIG. 48, plateau at 400 s", "experimental": "The coding region of the human melanocortin 1, 3, and 5 receptor (hMC1R, hMC3R, and hMC5R) genes was amplified by polymerase chain reaction and subcloned into the vector pMT4, and the sequence was verified. HEK-293 cells, which appear to lack endogenous melanocortin receptors (Lu et al., 1994), were cotransfected with pMT4 and pRSV-Neo by either calcium phosphate coprecipitation method or the use of Transfectam reagent (Promega). Clones were selected using 600 μg geneticin/ml. culture medium.\n[Ca^2+]i was measured in L6, A7r5, and HEK-293 cells (Zemel et al., 1995) as previously described and in 3T3-L1 cells as described by Klip and Ramlal (1987). Monolayers of nonfused L6 cells and confluent A7r5 cells after 14-16 h of starvation in a serum-free culture medium were rinsed with Hanks' balanced salt solution (HBSS), detached by incubation in 2 ml trypsin (0.05%) for 2-3 min at 37° C., and released by pipetting without trypsinization. Cells were harvested by centrifugation at 50 g and resuspended in 1 ml HBSS at a density of ˜10^6 cells/ml. For 3T3-L1 cells, monolayers of differentiated adipocytes were rinsed with serum-free DMEM and exposed to 0.05% trypsin for 3 min. The solution was decanted, and the cells were incubated for 3 min in culture medium. Cells were detached by pipetting and collected by centrifugation at 50 g. Cells were then incubated in culture medium to recover for 1 h followed by incubation in serum-free DMEM for 4 h at 37° C. in an atmosphere of 5% CO2, collected by centrifugation, and resuspended in HBSS at a density of ˜10^6 cells/ml. Cell suspensions were chilled on ice for 5 min and loaded with […] (final concn) fura 2 acetoxymethyl ester (AM; Sigma) in the dark for 20 min at 37° C. For 3T3-L1 adipocytes, the chilling step was skipped. […] [Ca^2+]i levels were then measured fluorometrically in suspensions using dual excitation (340 and 380 nm)-single emission (510 nm) fluorometry as previously described (Zemel et al., 1995). [Ca^2+]i was then calculated by the computer in the fluorometer with the equation of Grynkiewicz et al. (1985). […]"}}}
{"molecule": "B1", "values": [{"measurement": "effect on basal adenylyl cyclase levels", "setting": "untransfected 293 cells", "result": "no effect"}, {"measurement": "inhibition of MSH-R activation", "setting": "human MSH-R", "result": "No inhibition"}, {"measurement": "antagonism of α-MSH activation", "setting": "human MC4-R", "result": "potent antagonist"}, {"measurement": "Vmax of [Ca2+]i dose-response fit", "setting": "[1]", "result": "108.2±1.337"}, {"measurement": "EC50", "setting": "[1]; read-out: K of [Ca2+]i dose-response fit", "result": "18.4 ± 0.706", "unit": "nM"}]}
